In assay [1] the target is T1, murine pro-myostatin (mouse, UniProt O08689 25-376, biotinylated (in the SPR assay)).
T1 construct: also called proGDF8 (mouse); mouse pro-myostatin
In words: SPR Biacore 8K, biotin-antigen captured.

In assay [2] the target is recombinant human latent myostatin (human, UniProt O14793 24-375, biotinylated (in the Octet pH assay only)). In words: cell-based or functional assay.
The target of assay [3] is T2, human pro-myostatin (human, UniProt O14793 24-375, biotinylated (in the SPR assay)).
T2 construct: Disulfide-linked homodimer; also called proGDF8 (human)
In words: SPR Biacore 8K, biotin-antigen captured.

Assay [4] has as its target T3, cyno pro-myostatin (cynomolgus monkey, Biotinylated for capture in the SPR assay (site not stated). The native form is a disulfide-linked homodimer, partly furin-cleaved; one chain is given.).
T3 construct: also called proGDF8 (cynomolgus); cynomolgus monkey pro-myostatin
In words: SPR Biacore 8K, biotin-antigen captured. (In general: SPR reads the build-up and loss of mass on a sensor chip optically.)

In assay [5] the target is mouse GDF-11 (mouse, UniProt Q9Z1W4 297-405, limits assumed). Nature of the assay: plate binding assay, OD 450 nm, one antibody concentration that is not given, on Mu-GDF-11 (method not described in the text).
Assay [6] addresses T2, human pro-myostatin. In words: cell-based or functional assay.
Assay [7] has as its target human GDF-11 (human, UniProt O95390 299-407, limits assumed). In words: plate binding assay, OD 450 nm, one antibody concentration that is not given, on Hu-GDF-11 (method not described in the text).

Sequence of mouse GDF-11 (Q9Z1W4 297-405 limits assumed): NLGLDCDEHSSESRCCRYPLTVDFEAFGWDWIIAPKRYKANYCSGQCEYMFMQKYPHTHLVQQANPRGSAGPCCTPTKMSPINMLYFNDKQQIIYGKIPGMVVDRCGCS
Sequence of human GDF-11 (O95390 299-407 limits assumed): as the sequence (Q9Z1W4 297-405 limits assumed) above

B1: Ab124 (antibody, human IgG4 S228P, kappa, V domains shown)
VH: QVQLQESGPGLVKPSQTLSLTCTVSGGSISSSPYSWSWIRQPPGKGLEWIGYVDLAGSTDYNPSLKSRVTMSVDTSKNQFSLKVNSVTAADTAVYYCARALSSRSSEWLLDQYTMDVWGQGTTVTVSS
VL: EIVMTQSPATLSLSPGERATLSCRASQSIGINLAWYQQKPGQAPRLLIYGVSNRATGIPARFSGSGSGTDFTLTISSLEPEDFAVYYCQQYGTARLTFGGGTKVEIKR
In assay [1], B1 yielded a Kd of 3260 pM, an off-rate constant (koff) of 0.000454 s⁻¹ and a kon of 139000 M⁻¹ s⁻¹. Also, the “IC50 (nM) Latent + mTLL2” value in assay [2] was 1.43 nM.

B2: Ab115 (antibody, human IgG4 S228P, kappa, V domains shown)
VH: QVQLVQSGAEVKKPGASVKVSCKVSGYAFTNYNIHWVRQAPGKGLEWMGGINPRTGGTIYAQKFQGRVTMTEDTSTDTAYMELSSLKSEDTAVYYCAKDIYTGVAVAGSGMDYWGQGTLVTVSS
VL: DIQMTQSPSSVSASVGDRVTITCRASQGISTHLAWYQQKPGKAPKLLIYGASNLESGVPSRFSGSGSGTDFTLTISSLQPEDFANYYCQQANSFPWTFGGGTKVEIKR
Take B2: the Kd in assay [3] came out at 3040 pM; in assay [1], 3050 pM; in assay [4], 3130 pM. The off-rate constant (koff) was found to be 0.00123 s⁻¹ in assay [3], 0.00137 s⁻¹ in assay [1] and 0.00139 s⁻¹ in assay [4]. Besides, the kon in assay [3] was 406000 M⁻¹ s⁻¹; in assay [1] it was 450000 M⁻¹ s⁻¹; in assay [4], 443000 M⁻¹ s⁻¹. For the same molecule, the binding result in assay [5] and in assay [7] was “no binding” in each case. Besides, the “IC50 (nM) Pro + Furin” value in assay [6] amounted to 6.01 nM. For the same molecule, the “IC50 (nM) Latent + mTLL2” value in assay [2] turned out to be 2.94 nM.

B3: Ab129 (antibody, human IgG4 S228P, kappa, V domains shown)
VH: QVQLVQSGAEVKKPGASVKVSCKVSGFNYPRSAIHWVRQAPGKGLEWMGGINPSGEATIYAQKFQGRVTMTEDTSTDTAYMELSSLKSEDTAVYYCARDSSPQWLVTAGVYFYGMDVWGQGTTVTVSS
VL: DIQMTQSPSSVSASVGDRVTITCRASQSISNWLAWYQQKPGKAPKLLIYHASTLQSGVPSRFSGSGSGTDFTLTISSLQPEDFANYYCQQYSSTPWTFGGGTKVEIKR
As for B3, in assay [3], binding was characterised by a dissociation constant (Kd) of 2200 pM, the koff came to 0.000307 s⁻¹ and the on-rate (kon) came to 140000 M⁻¹ s⁻¹. In assay [1], the equilibrium dissociation constant (Kd) is 4240 pM, the koff came to 0.000496 s⁻¹ and the on-rate constant (kon) was found to be 117000 M⁻¹ s⁻¹. In assay [4], this molecule gave an equilibrium dissociation constant (Kd) of 1300 pM, a dissociation rate constant (koff) of 0.000534 s⁻¹ and a kon of 411000 M⁻¹ s⁻¹. In assay [6], the “IC50 (nM) Pro + Furin” value is 4.31 nM. In addition, the “IC50 (nM) Latent + mTLL2” value in assay [2] stood at 3.89 nM.

B4: Ab114 (antibody, human IgG4 S228P, kappa, V domains shown)
VH: QVQLVQSGAEVKKPGASVKVSCKVSGGTFRSYTIHWVRQAPGKGLEWMGGMNPSSGHTIYAQKFQGRVTMTEDTSTDTAYMELSSLKSEDTAVYYCARGLDYGEGYYYYGMDVWGQGTTVTVSS
VL: DIQMTQSPSSVSASVGDRVTITCRASQGISESLAWYQQKPGKAPKLLIYSASSLESGVPSRFSGSGSGTDFTLTISSLQPEDFANYYCQQGYSSPPYTFGGGTKVEIKR
Turning to B4, the dissociation constant Kd in assay [3] was 1740 pM; in assay [1], 6290 pM; in assay [4], 2600 pM. Besides, the values for the koff in assay [3], in assay [1] and in assay [4] were 0.00735 s⁻¹, 0.0208 s⁻¹ and 0.00908 s⁻¹, respectively. The association rate constant (kon) in assay [3] came to 4.23e+06 M⁻¹ s⁻¹; in assay [1] it was 3.31e+06 M⁻¹ s⁻¹; in assay [4] it was 3.49e+06 M⁻¹ s⁻¹. In addition, the binding result in assay [5] and in assay [7] was “no binding” each time. Besides, in assay [6], the “IC50 (nM) Pro + Furin” value was 2.8 nM. Further, the “IC50 (nM) Latent + mTLL2” value in assay [2] was 3.3 nM.

B5: Ab101 (antibody, human IgG4 S228P, kappa, V domains shown)
VH: EVQLVESGGGLVQPGGSLRLSCAASGSAFSSYGMSWVRQAPGKGLELVASINSNGGSTYYPDSVKGRFTISRDNAKNSLYLQMNSLRAEDTAVYYCARDLLVRFLEWSHYYGMDVWGQGTTVTVSS
VL: DIVMTQSPLSLPVTPGEPASISCRSSQSLLHSSGHNFLHWYLQKPGQSPQLLIYEVSNRVSGVPDRFSGSGSGTDFTLKISRVEAEDVGVYYCMQQTQYPPTFGGGTKVEIKR
Take B5: the Kd stood at 78 pM in assay [3], 83 pM in assay [1] and 65 pM in assay [4]. In addition, the off-rate (koff) in assay [3] came out at 0.000339 s⁻¹; in assay [1], 0.00036 s⁻¹; in assay [4], 0.000317 s⁻¹. Also, the kon in assay [3] is 4.37e+06 M⁻¹ s⁻¹; in assay [1], 4.34e+06 M⁻¹ s⁻¹; in assay [4], 4.84e+06 M⁻¹ s⁻¹. The “IC50 (nM) Pro + Furin” value in assay [6] came out at 0.251 nM. Further, the “IC50 (nM) Latent + mTLL2” value in assay [2] is 0.128 nM.

B6: Ab134 (antibody, human IgG4 S228P, kappa, V domains shown)
VH: EVQLVESGGGLVQPGGSLRLSCAASGSAFSSYGMSWVRQAPGKGLELVASINSNGGSTYYPDSVKGRFTISRDNAKNSLYLQMNSLRAEDTAVYYCARDLLVEFLKWSHYYGMDVWGQGTTVTVSS
VL: DIVMTQSPLSLPVTPGEPASISCRSSQSLLHSSGHNFLHWYLQKPGQSPQLLIYEVSNRVSGVPDRFSGSGSGTDFTLKISRVEAEDVGVYYCMQQTQYPPTFGGGTKVEIKR
Turning to B6, in assay [2], the “IC50 (nM) Latent + mTLL2” value was 0.631 nM.

B7: Ab103 (antibody, human IgG4 S228P, kappa, V domains shown)
VH: EVQLVESGGGLVQPGGSLRLSCAASGYTFSSYGMSWVRQAPGKGLELVASITGDAGRTYYPDSVKGRFTISRDNAKNSLYLQMNSLRAEDTAVYYCARDTLVRFLEWSHYYGMDVWGQGTTVTVSS
VL: DIVMTQSPLSLPVTPGEPASISCRSSQSLLHSSGHNFLHWYLQKPGQSPQLLIYEVSNRVSGVPDRFSGSGSGTDFTLKISRVEAEDVGVYYCMQQTQYPPTFGGGTKVEIKR
Consider B7, for which, in assay [3], the Kd is 261 pM, the off-rate constant (koff) is 0.00151 s⁻¹ and the on-rate (kon) came to 5.78e+06 M⁻¹ s⁻¹. Besides, in assay [1], the dissociation constant Kd was found to be 379 pM, the dissociation rate constant (koff) worked out at 0.00221 s⁻¹ and the association rate constant (kon) amounted to 5.83e+06 M⁻¹ s⁻¹. In assay [4], this molecule returned a Kd of 252 pM, a koff of 0.00154 s⁻¹ and a kon of 6.09e+06 M⁻¹ s⁻¹. The “IC50 (nM) Pro + Furin” value in assay [6] was found to be 0.413 nM. In addition, the “IC50 (nM) Latent + mTLL2” value in assay [2] stood at 0.506 nM.

B8: Ab108 (antibody, human IgG4 S228P, kappa, V domains shown)
VH: EVQLVESGGGLVQPGGSLRLSCAASGSAFSSYGMSWVRQAPGKGLELVASINSNGGSTYYPDSVKGRFTISRDNAKNSLYLQMNSLRAEDTAVYYCARDLLVGFLQWSHYYGMDVWGQGTTVTVSS
VL: DIVMTQSPLSLPVTPGEPASISCRSSQSLLHSSGHNFLHWYLQKPGQSPQLLIYEVSNRVSGVPDRFSGSGSGTDFTLKISRVEAEDVGVYYCMQQTQYPPTFGGGTKVEIKR
As to B8, in assay [3], binding was put at a Kd of 177 pM, the off-rate (koff) is 0.00105 s⁻¹ and the association rate constant (kon) was 5.92e+06 M⁻¹ s⁻¹. In assay [1], this molecule had a dissociation constant Kd of 218 pM, an off-rate constant (koff) of 0.00183 s⁻¹ and a kon of 8.42e+06 M⁻¹ s⁻¹. In assay [4], this molecule displayed a Kd of 159 pM, an off-rate (koff) of 0.00102 s⁻¹ and a kon of 6.39e+06 M⁻¹ s⁻¹. The “IC50 (nM) Pro + Furin” value in assay [6] was 0.27 nM. For the same molecule, the “IC50 (nM) Latent + mTLL2” value in assay [2] was 0.237 nM.

B9: Ab107 (antibody, human IgG4 S228P, kappa, V domains shown)
VH: EVQLVESGGGLVQPGGSLRLSCAASGSAFSSYGMSWVRQAPGKGLELVASINSNGGSTYYPDSVKGRFTISRDNAKNSLYLQMNSLRAEDTAVYYCARDQLVRFLEWSHYYGMDVWGQGTTVTVSS
VL: DIVMTQSPLSLPVTPGEPASISCRSSQSLLHSSGHNFLHWYLQKPGQSPQLLIYAGSNRPSGVPDRFSGSGSGTDFTLKISRVEAEDVGVYYCAHATQLPHTFGGGTKVEIKR
In assay [3], B9 came in with a Kd of 60 pM, an off-rate (koff) of 0.000319 s⁻¹ and a kon of 5.34e+06 M⁻¹ s⁻¹. Also, in assay [1], binding was put at a Kd of 57 pM, the koff came to 0.000455 s⁻¹ and the on-rate constant (kon) turned out to be 8.04e+06 M⁻¹ s⁻¹. For the same molecule, in assay [4], binding was put at a Kd of 54 pM, the off-rate constant (koff) was determined as 0.000316 s⁻¹ and the kon came to 5.85e+06 M⁻¹ s⁻¹. Moreover, the “IC50 (nM) Pro + Furin” value in assay [6] came to 0.195 nM. In addition, the “IC50 (nM) Latent + mTLL2” value in assay [2] was found to be 0.135 nM.

As a reminder, the Kd is the constant that tells how readily two partners part at equilibrium. Low values mean a tighter complex, high ones a looser complex. By koff is commonly meant the first-order rate constant of dissociation. The kon is a measure of how fast the partners come together. Read a low kon as slower complex formation.

The values are drawn from patent US20260209325A1 (SCHOLAR ROCK, published 2026).
